# Laboratory results reported in US20130065259A1.
# Tested on: SNAPtide (FITC/DABCYL), List Biological Laboratories product #521
substance,measurement,value
BoNT/A complex,"Km, non-bead based assay (free BoNT/A), SNAPtide conversion",typical Km=0.7 µM
same,"fold change of Km, immobilized against free enzyme",3.2-fold lower
